Results as given in PMC8667730.

Biological target: TLR5 protein from pGEX-6p-1 (GST-His*10-TEV-TLR5, digested with TEV protease), used for SPR (silvery pomfret (Pampus argenteus))
Assay: SPR; BIAcore S200; TLR5 immobilised on an SA sensor chip; flaB proteins injected at 30 uL/min in PBS-P, 25°C; 1:1 Langmuir fit

Molecule | Kd [µM]
flagellin B (flaB) from Vibrio anguillarum, wild type, recombinant (from UniProt Q56572 1-376) (natural protein) | 3.28
flaB mutant F6 (E122, Glu to Ala) (natural protein) MAINVSTNVSAMTAQRYLNNAADGTQKSMERLSSGYKINSARDDAAGLQISNRLTSQSRGLDMAVRNANDGISIAQTAEGAMNETTNILQRMRDLSLQSANGSNSSSERQAIQEEVSALNDALNRIAETTSFGGNKLLNGSFGNKSFQIGADSGEAVMLSMSDMRSDTKAMGGKSYVATNGKAPDWSVTNATDLTLSYTDKQGEAREVTINAKAGDDLEEVATYINGQNGDIKASVGDEGKLQLFAANQKVSSDVTIGGGLGTEIGFAAGKDVTVKDINVTTVGGSQEAVALIDGALKAVDSQRASLGAFQNRFGHAISNLDNINENVNASRSRIKDTDYARETTQMTKSQILQQASTSVLAQAKQSPSAALSLLG | 4.4
flaB mutant F2 (N83, Asn to Ala) (natural protein) MAINVSTNVSAMTAQRYLNNAADGTQKSMERLSSGYKINSARDDAAGLQISNRLTSQSRGLDMAVRNANDGISIAQTAEGAMAETTNILQRMRDLSLQSANGSNSSSERQAIQEEVSALNDELNRIAETTSFGGNKLLNGSFGNKSFQIGADSGEAVMLSMSDMRSDTKAMGGKSYVATNGKAPDWSVTNATDLTLSYTDKQGEAREVTINAKAGDDLEEVATYINGQNGDIKASVGDEGKLQLFAANQKVSSDVTIGGGLGTEIGFAAGKDVTVKDINVTTVGGSQEAVALIDGALKAVDSQRASLGAFQNRFGHAISNLDNINENVNASRSRIKDTDYARETTQMTKSQILQQASTSVLAQAKQSPSAALSLLG | 0.447
flaB mutant F14 (I324, Ile to Asn) (natural protein) MAINVSTNVSAMTAQRYLNNAADGTQKSMERLSSGYKINSARDDAAGLQISNRLTSQSRGLDMAVRNANDGISIAQTAEGAMNETTNILQRMRDLSLQSANGSNSSSERQAIQEEVSALNDELNRIAETTSFGGNKLLNGSFGNKSFQIGADSGEAVMLSMSDMRSDTKAMGGKSYVATNGKAPDWSVTNATDLTLSYTDKQGEAREVTINAKAGDDLEEVATYINGQNGDIKASVGDEGKLQLFAANQKVSSDVTIGGGLGTEIGFAAGKDVTVKDINVTTVGGSQEAVALIDGALKAVDSQRASLGAFQNRFGHAISNLDNNNENVNASRSRIKDTDYARETTQMTKSQILQQASTSVLAQAKQSPSAALSLLG | 27.5
flaB mutant F9 (R313, Arg to Ala) (natural protein) MAINVSTNVSAMTAQRYLNNAADGTQKSMERLSSGYKINSARDDAAGLQISNRLTSQSRGLDMAVRNANDGISIAQTAEGAMNETTNILQRMRDLSLQSANGSNSSSERQAIQEEVSALNDELNRIAETTSFGGNKLLNGSFGNKSFQIGADSGEAVMLSMSDMRSDTKAMGGKSYVATNGKAPDWSVTNATDLTLSYTDKQGEAREVTINAKAGDDLEEVATYINGQNGDIKASVGDEGKLQLFAANQKVSSDVTIGGGLGTEIGFAAGKDVTVKDINVTTVGGSQEAVALIDGALKAVDSQRASLGAFQNAFGHAISNLDNINENVNASRSRIKDTDYARETTQMTKSQILQQASTSVLAQAKQSPSAALSLLG | 14.8
flaB mutant F5 (D94, Asp to Ala) (natural protein) MAINVSTNVSAMTAQRYLNNAADGTQKSMERLSSGYKINSARDDAAGLQISNRLTSQSRGLDMAVRNANDGISIAQTAEGAMNETTNILQRMRALSLQSANGSNSSSERQAIQEEVSALNDELNRIAETTSFGGNKLLNGSFGNKSFQIGADSGEAVMLSMSDMRSDTKAMGGKSYVATNGKAPDWSVTNATDLTLSYTDKQGEAREVTINAKAGDDLEEVATYINGQNGDIKASVGDEGKLQLFAANQKVSSDVTIGGGLGTEIGFAAGKDVTVKDINVTTVGGSQEAVALIDGALKAVDSQRASLGAFQNRFGHAISNLDNINENVNASRSRIKDTDYARETTQMTKSQILQQASTSVLAQAKQSPSAALSLLG | 46.3
flaB mutant F13 (H316, His to Ala) (natural protein) MAINVSTNVSAMTAQRYLNNAADGTQKSMERLSSGYKINSARDDAAGLQISNRLTSQSRGLDMAVRNANDGISIAQTAEGAMNETTNILQRMRDLSLQSANGSNSSSERQAIQEEVSALNDELNRIAETTSFGGNKLLNGSFGNKSFQIGADSGEAVMLSMSDMRSDTKAMGGKSYVATNGKAPDWSVTNATDLTLSYTDKQGEAREVTINAKAGDDLEEVATYINGQNGDIKASVGDEGKLQLFAANQKVSSDVTIGGGLGTEIGFAAGKDVTVKDINVTTVGGSQEAVALIDGALKAVDSQRASLGAFQNRFGAAISNLDNINENVNASRSRIKDTDYARETTQMTKSQILQQASTSVLAQAKQSPSAALSLLG | 7.29
flaB mutant F7 (D152, Asp to Ala) (natural protein) MAINVSTNVSAMTAQRYLNNAADGTQKSMERLSSGYKINSARDDAAGLQISNRLTSQSRGLDMAVRNANDGISIAQTAEGAMNETTNILQRMRDLSLQSANGSNSSSERQAIQEEVSALNDELNRIAETTSFGGNKLLNGSFGNKSFQIGAASGEAVMLSMSDMRSDTKAMGGKSYVATNGKAPDWSVTNATDLTLSYTDKQGEAREVTINAKAGDDLEEVATYINGQNGDIKASVGDEGKLQLFAANQKVSSDVTIGGGLGTEIGFAAGKDVTVKDINVTTVGGSQEAVALIDGALKAVDSQRASLGAFQNRFGHAISNLDNINENVNASRSRIKDTDYARETTQMTKSQILQQASTSVLAQAKQSPSAALSLLG | 71.7
flaB mutant F12 (L97, Leu to Asn) (natural protein) MAINVSTNVSAMTAQRYLNNAADGTQKSMERLSSGYKINSARDDAAGLQISNRLTSQSRGLDMAVRNANDGISIAQTAEGAMNETTNILQRMRDLSNQSANGSNSSSERQAIQEEVSALNDELNRIAETTSFGGNKLLNGSFGNKSFQIGADSGEAVMLSMSDMRSDTKAMGGKSYVATNGKAPDWSVTNATDLTLSYTDKQGEAREVTINAKAGDDLEEVATYINGQNGDIKASVGDEGKLQLFAANQKVSSDVTIGGGLGTEIGFAAGKDVTVKDINVTTVGGSQEAVALIDGALKAVDSQRASLGAFQNRFGHAISNLDNINENVNASRSRIKDTDYARETTQMTKSQILQQASTSVLAQAKQSPSAALSLLG | 2.41
flaB mutant F1 (Q57, Gln to Ala) (natural protein) MAINVSTNVSAMTAQRYLNNAADGTQKSMERLSSGYKINSARDDAAGLQISNRLTSASRGLDMAVRNANDGISIAQTAEGAMNETTNILQRMRDLSLQSANGSNSSSERQAIQEEVSALNDELNRIAETTSFGGNKLLNGSFGNKSFQIGADSGEAVMLSMSDMRSDTKAMGGKSYVATNGKAPDWSVTNATDLTLSYTDKQGEAREVTINAKAGDDLEEVATYINGQNGDIKASVGDEGKLQLFAANQKVSSDVTIGGGLGTEIGFAAGKDVTVKDINVTTVGGSQEAVALIDGALKAVDSQRASLGAFQNRFGHAISNLDNINENVNASRSRIKDTDYARETTQMTKSQILQQASTSVLAQAKQSPSAALSLLG | 0.431
flaB mutant F4 (R91, Arg to Ala) (natural protein) MAINVSTNVSAMTAQRYLNNAADGTQKSMERLSSGYKINSARDDAAGLQISNRLTSQSRGLDMAVRNANDGISIAQTAEGAMNETTNILQAMRDLSLQSANGSNSSSERQAIQEEVSALNDELNRIAETTSFGGNKLLNGSFGNKSFQIGADSGEAVMLSMSDMRSDTKAMGGKSYVATNGKAPDWSVTNATDLTLSYTDKQGEAREVTINAKAGDDLEEVATYINGQNGDIKASVGDEGKLQLFAANQKVSSDVTIGGGLGTEIGFAAGKDVTVKDINVTTVGGSQEAVALIDGALKAVDSQRASLGAFQNRFGHAISNLDNINENVNASRSRIKDTDYARETTQMTKSQILQQASTSVLAQAKQSPSAALSLLG | 2.57
flaB mutant F11 (N320, Asn to Ala) (natural protein) MAINVSTNVSAMTAQRYLNNAADGTQKSMERLSSGYKINSARDDAAGLQISNRLTSQSRGLDMAVRNANDGISIAQTAEGAMNETTNILQRMRDLSLQSANGSNSSSERQAIQEEVSALNDELNRIAETTSFGGNKLLNGSFGNKSFQIGADSGEAVMLSMSDMRSDTKAMGGKSYVATNGKAPDWSVTNATDLTLSYTDKQGEAREVTINAKAGDDLEEVATYINGQNGDIKASVGDEGKLQLFAANQKVSSDVTIGGGLGTEIGFAAGKDVTVKDINVTTVGGSQEAVALIDGALKAVDSQRASLGAFQNRFGHAISALDNINENVNASRSRIKDTDYARETTQMTKSQILQQASTSVLAQAKQSPSAALSLLG | 13
flaB mutant F8 (N312, Asn to Ala) (natural protein) MAINVSTNVSAMTAQRYLNNAADGTQKSMERLSSGYKINSARDDAAGLQISNRLTSQSRGLDMAVRNANDGISIAQTAEGAMNETTNILQRMRDLSLQSANGSNSSSERQAIQEEVSALNDELNRIAETTSFGGNKLLNGSFGNKSFQIGADSGEAVMLSMSDMRSDTKAMGGKSYVATNGKAPDWSVTNATDLTLSYTDKQGEAREVTINAKAGDDLEEVATYINGQNGDIKASVGDEGKLQLFAANQKVSSDVTIGGGLGTEIGFAAGKDVTVKDINVTTVGGSQEAVALIDGALKAVDSQRASLGAFQARFGHAISNLDNINENVNASRSRIKDTDYARETTQMTKSQILQQASTSVLAQAKQSPSAALSLLG | 3.8
flaB mutant F3 (N87, Asn to Ala) (natural protein) MAINVSTNVSAMTAQRYLNNAADGTQKSMERLSSGYKINSARDDAAGLQISNRLTSQSRGLDMAVRNANDGISIAQTAEGAMNETTAILQRMRDLSLQSANGSNSSSERQAIQEEVSALNDELNRIAETTSFGGNKLLNGSFGNKSFQIGADSGEAVMLSMSDMRSDTKAMGGKSYVATNGKAPDWSVTNATDLTLSYTDKQGEAREVTINAKAGDDLEEVATYINGQNGDIKASVGDEGKLQLFAANQKVSSDVTIGGGLGTEIGFAAGKDVTVKDINVTTVGGSQEAVALIDGALKAVDSQRASLGAFQNRFGHAISNLDNINENVNASRSRIKDTDYARETTQMTKSQILQQASTSVLAQAKQSPSAALSLLG | 26.2
